According to the supplement of paper PMC9170038:

System: MS2 coat protein
Assay: apparent KD of MS2 coat protein; designed switch direction (-1 OFF switch, 1 ON switch): -1; higher = weaker reporter binding
How it was run: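 Designed RNA switches were transcribed on Illumina chips by stalled E. coli RNA polymerase and titrated with SNAP-549-labelled MS2 coat protein from 0.7 or 1.5 nM, doubling to 3 µM. Step length ran from 0.8–1.5 h at the lowest concentration to 10–20 min at the highest. The apparent KD is the median over clusters for each design, from curve-fitted normalised cluster fluorescence.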

[1] = input ligand: microRNA oligo, concentration not stated
[2] = Eterna round: R95, input ligand: microRNA oligo, concentration not stated
[3] = Eterna round: R95, input ligand: FMN 200 uM
[4] = Eterna round: R95, input ligand: none

Sequence	apparent KD of MS2 coat protein (input ligand: FMN 200 uM) [nM]	apparent KD of MS2 coat protein (input ligand: none) [nM]	apparent KD of MS2 coat protein [2] [nM]	other results
CCGGUUGGCGCAGGAUAUACAUGAGGAUCACCCAUGUUCAUGAGGAUCAUCCAUGAGUUUUUGUUGUAGAAGGGUGGCCCGGCC (Eterna round: R96, puzzle: Exclusion NG 2)	117	98.4	–	apparent KD of MS2 coat protein [1]: 60.8 nM
CCGUGCAGGCUGCGGUCCUACAUGAGGAUCACCCAUGUGGUCCGGUGGCGUGGGUCGCCGGACUUGGCUCGUCUUGU [salish99_S_TOV1_R5_016] (Eterna round: R97, puzzle: Sensor, turn-off variant 1)	75.1	86.3	–	–
CCGUUCCGUGUAGGAUAUUGGCCUUCCUCGGGCCGAGAAGGACAUGAGGAUCACCCAUGUAUGCUAUUAUCGCGCGUGGCGCAC [Design 97] (Eterna round: R96, puzzle: Exclusion NG 1)	158	39.1	–	apparent KD of MS2 coat protein [1]: 22.6 nM
CCUAAGAAAGGAUAUACACCGGUGGGCCGCUGAAUUCAGCAACAUGAGGAUCACCCAUGUAGAAGGUUUAUGGG [Veteso] (Eterna round: R96, puzzle: Exclusion 2)	346	262	–	apparent KD of MS2 coat protein [1]: 147 nM
CCUAUGUGAGGAUAUCACUGGUCUUUUCAUUAGAUGAUCAGUGAGAAGGCACAUGAGGAUCACCCAUGUCAGUG [Ex4 - 3 - 53] (Eterna round: R96, puzzle: Exclusion 4)	48	110	–	apparent KD of MS2 coat protein [1]: 59.7 nM
CCUAUGUGAGGAUAUCACUGGUCUUUUCAUUAGAUGAUCAGUGAGAAGGCACAUGAGGAUCACCCAUGUCAGUG [Ex4 - 3 - 53] (puzzle: Exclusion 4)	–	–	71.8	–
CCUAUGUUAGGAUAUUGCUCUCAGCCGUAGGAGGACAUGACCGAGAAGGAACAUGAGGAUCACCCAUGUGUAUU [Eternabot (L2) Solution 53] (Eterna round: R97, puzzle: Exclusion 4)	17.4	24	–	–
CCUCAACAGGUCAGGAUAUACCCAACGGCGGACGGGUAGAAGGGACAUGAGGAUCACCCAUGUCCAGAGGUGAG [Eternabot (Original) Solution 11] (Eterna round: R97, puzzle: Brourd's mod of Exclusion 4)	45.5	16.9	–	–
CCUCAACAGUAGGAUAUCAUCAAACUAUUGUGAUGAGAAGGACUGACAUGAGGAUCACCCAUGUUAACGUGAUG [Exclusion 6 - 6:c] (puzzle: Exclusion 6)	–	–	21	apparent KD of MS2 coat protein [3]: 70.8 nM; apparent KD of MS2 coat protein [4]: 20.4 nM
CCUCAACAGUAGGAUAUCAUCAAACUAUUGUGAUGAGAAGGACUGACAUGAGGAUCACCCAUGUUAACGUGAUG [Mod of Brourd - Jieux - Exclusion 6] (Eterna round: R97, puzzle: Exclusion 6)	176	35.8	–	–
CCUCACAGAGGAUAUACGUCCACUGAACCCAUGAGGUUGCCACAUGAGGAUCACCCAUGUAGAAGGCUGUGCUG [Mageanma] (puzzle: Exclusion 2)	–	–	18.9	–
CCUCCACAGGAGGAUAUCAUCAAACUAUUGUGAUGAGAAGGCCUGACAUGAGGAUCACCCAUGUUAACGUGAUG [Mod of Brourd 8 - Jieux - Exclusion 6] (Eterna round: R97, puzzle: Exclusion 6)	209	58.1	–	–
CCUCCACAUGAGGAUCACCCAUGUCAGGAUAUCGUGUGCGCGUUUUCGGUCUUUCGCGCGAGAAGGGACGACUG (Eterna round: R96, puzzle: Exclusion 1)	32	30.2	–	apparent KD of MS2 coat protein [1]: 22.5 nM
CCUCCACAUGAGGAUCACCCAUGUCAGGAUAUCGUGUGCGCGUUUUCGGUCUUUCGCGCGAGAAGGGACGACUG (puzzle: Exclusion 1)	–	–	24.7	–
CCUCCACAUGAGGAUCACCCAUGUCAGGAUAUCGUGUGCGCGUUUUCGGUCUUUCGUGCGAGAAGGGACGUCUG (puzzle: Exclusion 1)	–	–	32.6	–
CCUCCACAUGAGGAUCACCCAUGUCAGGAUAUCGUGUGUUUUUUUUCGGCCGCGCGUGCGAGAAGGGACGUCUU (puzzle: Exclusion 1)	–	–	19.1	–
CCUCCCGCCGUCAGGAUAUGCCGUACCGCUGCGCUCCAGAAGGCACUUGAGGAUCACCCAAGUACCCGUGAGGC [salish99_bmod_ex4_r4_009] (Eterna round: R97, puzzle: Brourd's mod of Exclusion 4)	16	16.1	–	–
CCUCGACAUGAGGAUCACCCAUGUCAGGAUAUUGUGUAUCGGGUUUUUUACCGAAAGGCGAGAAGGGAUGUGUG [LRO-Excl1-11] (puzzle: Exclusion 1)	–	–	15	–
CCUCGACAUGAGGAUCACCCAUGUCAGGAUAUUGUGUAUCGGGUUUUUUACGGAAAGGCGAGAAGGGAUGUGUG [LRO-Excl1-10] (puzzle: Exclusion 1)	–	–	15.5	–

Sequence	apparent KD of MS2 coat protein (input ligand: FMN 200 uM) [nM]	apparent KD of MS2 coat protein (input ligand: none) [nM]	apparent KD of MS2 coat protein [2] [nM]	other results
CCUCGGUCAGGAUAUGGGCCAUGCGAUGAUGAAGCCUGGCGCCAGAAGGGACAUGAGGAUCACCCAUGUCCGUA [Eternabot (Original) Solution 37] (Eterna round: R97, puzzle: Exclusion 4)	71.3	17.2	–	–
CCUCUAACCUAGGAUAUAGGUAGACCUAGUCGCCUAGAAGGAGGUACAUGAGGAUCACCCAUGUAUAUUGGGCU [Inmaor] (puzzle: Exclusion 6)	–	–	173	–
CCUCUACAUGAGGAUCACCCAUGUGAGGAUAUCAGUGCAAAAGGCACGUAAUAAAUCGUGAGAAGGCACAUGGG [EX1 A.15] (Eterna round: R97, puzzle: Exclusion 1)	24	112	–	–
CCUCUAUUUGUGAGGAUAUCGGUAAACUGGAUUGUCGAGAAGGCACAUGAGGAUCACCCAUGUAUUGAACAGCA [JR_BMEx4_Sub021] (Eterna round: R97, puzzle: Brourd's mod of Exclusion 4)	203	31.2	–	–
CCUCUGUCAGGAUAUCGUGCAUACAACGAAAGUUCUAUGUGCGAGAAGGGACAUGAGGAUCACCCAUGUUUGCG [Omei Ex4 A21] (Eterna round: R97, puzzle: Exclusion 4)	225	62.5	–	–
CCUCUGUUAGGAUAUCAAACACUAUCUGCUCCAGAGUUAAGUGAGAAGGGACAUGAGGAUCACCCAUGUAAAAU [Isreusraar] (puzzle: Exclusion 4)	–	–	26.2	–
CCUGCACAUGAGGAUCACCCAUGUCAGGAUAUCUCGCCGUCGGCUUGCCGACGGUAUUAGAGAAGGGACAAGGG [JL Tixe mod 2] (puzzle: Exclusion 1)	–	–	21.9	–
CCUGUGUGAGGAUAUGGUGUUGGCCAAAAGGAAUAGCUCCUCCAGAAGGCACAUGAGGAUCACCCAUGUCGUGG [Jolly's Folly 23 - Jieux - Exclusion 4] (Eterna round: R96, puzzle: Exclusion 4)	138	60.2	–	apparent KD of MS2 coat protein [1]: 50.3 nM
CCUUUGUCAGGAUAUCAGAACACGCCCGUAGGGAGUGCAAAUGAGAAGGGACAUGAGGAUCACCCAUGUACAGA [Leonveti] (puzzle: Exclusion 4)	–	–	29.4	–
CGAAAGGUAGGAUAUACGAAGAAAAAGGGUAGAAGAAGAACACAUGAGGAUCACCCAUGUAGAAGGACCAAAGC [Mat - Exclusion 2 - Mod of my Tesla design - D16] (puzzle: Exclusion 2)	–	–	22.1	apparent KD of MS2 coat protein [3]: 65.1 nM; apparent KD of MS2 coat protein [4]: 20.5 nM
CGAACCCGAGGAUAUCGUAAACCCGACAUGAGGAUCACCCAUGUCAUCCUCACGGCGCCACGAGAAGGCGGUGUUU [Leinat] (puzzle: Exclusion 5)	–	–	43.7	–
CGAAGUACGUAAGGAUAUACCGUGAGGACAACGGUAGAAGGUACAACAACAUGAGGAUCACCCAUGUGGACCUCUCGGCGUUGU [Eternabot solution 19] (Eterna round: R96, puzzle: Exclusion NG 1)	–	–	–	apparent KD of MS2 coat protein [1]: 309 nM
CGAAUUAUAGGAUAUACAUGAGGAUCACCCAUGUAACCGUGACUGGGAUGCGUCUCAAGUAGAAGGAUAGGCGC [Eternabot (L1) Solution 9] (Eterna round: R97, puzzle: Exclusion 3)	27.2	14.3	–	–
CGACGUAAAGGAUAUACAUGAGGAUCACCCAUGUCCCUACAAUGAGUAGGUACACGCAGUAGAAGGUUACUUCG [Eternabot (Original) Solution 15] (Eterna round: R97, puzzle: Exclusion 3)	107	37	–	–
CGACUGUGAGGAUAUGGUGAGUAGUGCCUGAGCGCUGCUCACCAGAAGGCACAUGAGGAUCACCCAUGUAUAGC [Mat - Exclusion 4 - Mod of JL - D9] (puzzle: Exclusion 4)	–	–	31.7	–
CGAGCUUUUUGCUCGUCUUACAUGAGGAUCACCCAUGUCAAACAAACAAACAAACGAAAGUUUGUUUGUUUGUUUGA [Mod of sellena 2] (Eterna round: R97, puzzle: Sensor, turn-off variant 1)	29.4	30	–	–
CGAUAAAAGUGAGGAUAUGAGGAGAGAGAGAGAUCAGAAGGCACACAUGAGGAUCACCCAUGUGAGUUCUCGAAAUUAAAUAUU [Prohibition 49 - Jieux - Exclusion NG 1] (Eterna round: R96, puzzle: Exclusion NG 1)	15.2	18	–	apparent KD of MS2 coat protein [1]: 11.4 nM
CGAUAAAGCUGAGGAUAUGAGAAUAGAAAGAAAUCAGAAGGCAGACAUGAGGAUCACCCAUGUGAGUUCUCGAGAUUAGAUAUU [Prohibition 47 - Jieux - Exclusion NG 1] (Eterna round: R96, puzzle: Exclusion NG 1)	–	–	–	apparent KD of MS2 coat protein [1]: 22.2 nM
